The text below walks through data of publication PMC3769240.

This assay concerns the target Non-structural NS1 protein of human respiratory syncytial virus (hRSV) strain A (human respiratory syncytial virus strain A) (UniProt P0DOE9). Kind of assay: dynamic light scattering; NS1SOs made by heat (10 minutes at 70°C in Tris 10 mM pH 8, DTT 1 mM); measured at 20°C.

In turn, “Non-structural NS1 protein of human respiratory syncytial virus (hRSV) strain A (from UniProt P0DOE9 1-139) (natural protein)” had a stoichiometry N (NS1 monomers per molecule of oligomer) of 149.
